PMC11046469, “Leveraging a Phage-Encoded Noncanonical Amino Acid: A Novel Pathway to Potent and Selective Epigenetic Reader Protein Inhibitors” (ACS Central Science, 2024)

Target: T1, ENL YEATS domain (AviSUMO-ENL YEATS) (Homo sapiens, UniProt Q03111)
T1 construct: encoding ENL YEATS (aa 1−148) was cloned in pET28a-; made in house; host or cells: E. coli BL21(DE3pLysS), co-expressed with BirA (pBirAcm)
T1 sequence (Q03111 1-148): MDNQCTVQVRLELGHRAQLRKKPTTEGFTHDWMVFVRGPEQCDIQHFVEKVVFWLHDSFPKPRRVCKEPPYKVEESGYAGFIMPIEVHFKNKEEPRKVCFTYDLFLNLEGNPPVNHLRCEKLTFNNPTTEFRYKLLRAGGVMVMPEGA
Assay: Phage panning of BuK-containing 7-mer library against AviSUMO-ENL YEATS with Illumina NGS abundance
Conditions: TAG = amber codon (BuK); for n (number of NGS reads of the unique amino acid sequence) / percent (share of sequence reads): sheet ENLR3: round 3 of panning against ENL YEATS, 7-mer library positions V1-V7; for n (number of NGS reads of the 7-mer sequence V1-V7) / percent (share of NGS reads of the 7-mer sequence V1-V7): sheet ENLR3: round 3 of selection against ENL YEATS
Source text: We utilized a previously established amber-obligate 7-mer phage display library to develop a phage display library enriched with BuK-containing 7-mer peptides. For detailed characterizations, including analysis of amber codon percentages, NNK trinucleotide analysis, and amino acid distribution at each position within the library, please refer to the work of Tharp et al.[10] Furthermore, the comprehensive raw NGS data for the amber-obligate 7-mer phage library can be found in the NCBI’s Sequence Read Archive, under the accession ID PRJNA606283. To produce the BuK-containing 7-mer phage library, the phages were produced in the presence of 5 mM BuK using TOP10 cells harboring the following three plasmids: (1) pADL-gIII, which contains the 7-mer amber-obligate peptide-coding DNA library positioned at the N-terminus of M13 pIII gene; (2) pCDF-BuKRS, which encodes BuKRS and its cognate tRNA^Pyl for the genetic incorporation of BuK at amber codons in the 7-mer library; and (3) M13KO7TAA, a helper phage plasmid engineered to have a TAA mutation at pIII so that its lack of a functional pIII allows an efficient multivalent display of the 7-mer library. The ENL YEATS domain containing an N-terminal AviSUMO-Tag was recombinantly expressed in E. coli together with BirA, a biotin ligase, for site-specific biotinylation at the AviTag. The biotinylated AviSUMO-ENL YEATS was immobilized on streptavidin-coated magnetic beads for panning with the BuK-containing phages. […] Phage libraries collected from the first and third rounds of selection were sequenced using Illumina next generation sequencing (NGS) and all sequenced data are available through the NCBI SRA database (Project PRJNA1041845). To prevent possible sequencing errors from affecting conclusions, sequences were filtered using previously published paired-end processing,[10] where any sequences containing more than one mismatch in the nonlibrary region or any mismatch in the library region were discarded. The NGS data provided DNA sequences encompassing both the library and nonlibrary regions. In our analysis, we included data from the nonlibrary region as a stringent quality control measure to filter out low-quality data. For our analysis, we utilized 51 nucleotides from the NGS output, with 21 nucleotides encoding the library region and an additional 30 nucleotides for the nonlibrary region. […] Among all the sequences, only 85 of them contained more than 100 copies (blue area), while the remaining sequences all had low abundances (<10^2 copies, dark and light gray areas), which constituted 85.2% of the first round population. After three panning rounds, the selection converged to two highly enriched sequences: YDVYCYX (ENL-S1) and WWIIEXG (ENL-S2, X denotes BuK). Out of 551 different unique sequences collected from the third round, ENL-S1 and ENL-S2 represented 85% of the entire library (Figure 2A and Figures S6–S8). Both peptide sequences corresponded to their own unique DNA sequence, rather than there being varying codons encoding the same amino acids (Figure S7). […] Two motifs were found in the majority of sequences with high abundance (greater than 0.1%) (Figure S6). A Y(C/L)Y pattern was identified in the residues adjacent to BuK in four of the eight top sequences. Also, an H(L/Y)(T/V)LFXG (X denotes BuK) motif was observed, albeit at lower abundances, in two of the top sequences. In the initial round of selection, we observed that only a small percentage of phages were eluted, which aligns with typical outcomes in phage selection experiments since only a low copy number of phages can bind to the target.[10],[45] With each successive round of selection, we noted a gradual increase in the percentage of phages eluted. This incremental, rather than sharp, increase was attributed to the intensification of selection pressures, such as the application of more stringent washing protocols. We aimed for the incremental increase to retain potent clones with low copy numbers from the previous selection cycle. […]

Substance	n (number of NGS reads of the unique amino acid sequence)	percent (share of sequence reads) [%]	n (number of NGS reads of the 7-mer sequence V1-V7)	percent (share of NGS reads of the 7-mer sequence V1-V7) [%]
HYVLFTAGW	1	0.0009106	–	–
HYVLFYG	1	0.0009106	–	–
IGSIHYTAG	1	0.0009106	–	–
IHVYCTAGV	1	0.0009106	–	–
ILATAGSVN	1	0.0009106	–	–
ILIYTAGGD	4	0.003642	–	–
IMCYPFTAG	28	0.0255	–	–
IQTAGITAS	1	0.0009106	–	–
IRCHPWTAG	1	0.0009106	–	–
KCGPRTAGD	9	0.008196	–	–
KMPFTAGIS	1	0.0009106	–	–
KVTAGGGGV	1	0.0009106	–	–
LAYCTAGHN	2	0.001821	–	–
LCGPRTAGD	1	0.0009106	–	–
LFIALPTAG	1	0.0009106	–	–
LLAFLWL	1	0.0009106	–	–
LLIIETAGG	1	0.0009106	–	–
LLWTAGLAS	1	0.0009106	–	–
LNAEFTAGA	1	0.0009106	–	–
LTAGMPRSF	1	0.0009106	–	–
LTAGSSASG	1	0.0009106	–	–
LTAGTVLDP	1	0.0009106	–	–
LTCYCYTAG	39	0.03551	–	–
LWIFTPTAG	4	0.003642	–	–
LWIIETAGG	26	0.02368	–	–
LYGSTAGDC	1	0.0009106	–	–
MFTAGITDN	1	0.0009106	–	–
MTAGGLRHS	1	0.0009106	–	–

Substance	n (number of NGS reads of the unique amino acid sequence)	percent (share of sequence reads) [%]	n (number of NGS reads of the 7-mer sequence V1-V7)	percent (share of NGS reads of the 7-mer sequence V1-V7) [%]
NAIYCYTAG	1	0.0009106	–	–
NCPTAGFNL	1	0.0009106	–	–
NLTLFTAGG	–	–	1	0.0009106
NTAGNIGLY	–	–	1	0.0009106
NTITAGISL	–	–	1	0.0009106
NYVLFTAGG	–	–	1	0.0009106
QCAPRTAGD	–	–	1	0.0009106
QCCPRTAGD	10	0.009106	–	–
QCDPRTAGD	–	–	1	0.0009106
QCGLRTAGD	4	0.003642	–	–
QCGPLTAGD	10	0.009106	–	–
QCGPPTAGD	–	–	1	0.0009106
QCGPQTAGD	2	0.001821	–	–
QCGPRQD	–	–	1	0.0009106
QCGPRTAGD	9049	8.24	–	–
QCGPRTAGE	–	–	1	0.0009106
QCGPRTAGG	–	–	1	0.0009106
QCGPRTAGN	3	0.002732	–	–
QCGPRTAGV	–	–	1	0.0009106
QCGPRTAGY	10	0.009106	–	–
QCGPRWD	–	–	1	0.0009106
QCGPRYD	11	0.01002	–	–
QCGPWTAGD	4	0.003642	–	–
QCGPWTAGG	–	–	1	0.0009106
QCGQRTAGD	10	0.009106	–	–
QCGSRTAGD	3	0.002732	–	–
QCGTRTAGD	13	0.01184	–	–
